Measured values reported in patent US20240209076A1 (KODIAK SCIENCES, published 2024).

Molecular target: human IL-6 (human, UniProt P05231 30-212)
Assay: SPR Biacore, supernatant, Protein A capture, 37 C
Experimental: Those four positions were selected based on their tolerance for mutations as observed in bacterial and mammalian screens. […] These cultures were centrifuged and supernatants containing secreted antibodies were harvested and diluted in HBS-EP+ running buffer (1:20 ratio).
Antibodies were captured on a Protein A chip (GE) by injecting 1:20 cell supernatant dilutions at 10 μL/min for 60 seconds. […] The sensor chip was regenerated by a 60 seconds injection of 10 mM Glycine pH 1.7 at the flow rate of 50 μL/min. […] For this setup, 1 μg/mL of purified antibody was injected over a Protein A chip at 10 μL/min for 25 seconds. […] The sensor chip was regenerated by a 60 seconds injection of 10 mM Glycine pH 1.7 at flow rate of 50 μL/min. Data analysis for supernatant and purified samples were performed using BIAevaluation software (GE). All sensorgrams were double reference subtracted and fit using a 1:1 Langmuir binding model.

human IL-6, sequence (P05231 30-212 limits assumed): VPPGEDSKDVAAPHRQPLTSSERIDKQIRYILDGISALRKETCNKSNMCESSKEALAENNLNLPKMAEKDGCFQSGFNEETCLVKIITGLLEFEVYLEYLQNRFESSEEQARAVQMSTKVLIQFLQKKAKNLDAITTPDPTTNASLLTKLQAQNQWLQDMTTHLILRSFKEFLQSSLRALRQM

Binder | Kd | koff | kon
Anti-IL-6 antibody, heavy chain S35H, G66D, L100P / light chain M32L, M50D, N52S, M88Q (antibody, IgG1, V domains shown, IgG1; variable domains only; VL is variant III) VH: EVQLVESGGGLVQPGGSLRLSCAASGFTFSPFAMHWVRQAPGKGLEWVAKISPGGSWTYYSDTVTDRFTFSLDTSKSTAYLQMNSLRAEDTAVYYCARQPWGYYALDIWGQGTLVTVSS VL: DIQLTQSPSSLSASVGDRVTITCSASISVSYLYWYQQKPGKAPKLLIYDDSSLASGVPSRFSGSGSGTDFTLTISSLQPEDFATYYCQQWSGYPYTFGQGTKVEIK | 4.66 nM | 0.00354 s⁻¹ | 759000 M⁻¹ s⁻¹
Anti-IL-6 antibody, heavy chain S35H, G66D, L100E / light chain WT (antibody, IgG1, V domains shown, IgG1; variable domains only) VH: EVQLVESGGGLVQPGGSLRLSCAASGFTFSPFAMHWVRQAPGKGLEWVAKISPGGSWTYYSDTVTDRFTFSLDTSKSTAYLQMNSLRAEDTAVYYCARQEWGYYALDIWGQGTLVTVSS VL: DIQLTQSPSSLSASVGDRVTITCSASISVSYMYWYQQKPGKAPKLLIYDMSNLASGVPSRFSGSGSGTDFTLTISSLQPEDFATYYCMQWSGYPYTFGQGTKVEIK | 0.766 nM | 0.000869 s⁻¹ | 1.13e+06 M⁻¹ s⁻¹
Anti-IL-6 antibody, heavy chain S35H, G66D, L100R / light chain WT (antibody, IgG1, V domains shown, IgG1; variable domains only) VH: EVQLVESGGGLVQPGGSLRLSCAASGFTFSPFAMHWVRQAPGKGLEWVAKISPGGSWTYYSDTVTDRFTFSLDTSKSTAYLQMNSLRAEDTAVYYCARQRWGYYALDIWGQGTLVTVSS VL: DIQLTQSPSSLSASVGDRVTITCSASISVSYMYWYQQKPGKAPKLLIYDMSNLASGVPSRFSGSGSGTDFTLTISSLQPEDFATYYCMQWSGYPYTFGQGTKVEIK | 1.01 nM | 0.000957 s⁻¹ | 951000 M⁻¹ s⁻¹
Anti-IL-6 antibody, heavy chain S35H, G66D, L100R / light chain M32L, M50D, N52S, M88Q (antibody, IgG1, V domains shown, IgG1; variable domains only; VL is variant III) VH: EVQLVESGGGLVQPGGSLRLSCAASGFTFSPFAMHWVRQAPGKGLEWVAKISPGGSWTYYSDTVTDRFTFSLDTSKSTAYLQMNSLRAEDTAVYYCARQRWGYYALDIWGQGTLVTVSS VL: DIQLTQSPSSLSASVGDRVTITCSASISVSYLYWYQQKPGKAPKLLIYDDSSLASGVPSRFSGSGSGTDFTLTISSLQPEDFATYYCQQWSGYPYTFGQGTKVEIK | 0.878 nM | 0.00116 s⁻¹ | 1.32e+06 M⁻¹ s⁻¹
Anti-IL-6 antibody, heavy chain S35H, G66D, L100H / light chain M32L, M50D, N52S, M88Q (antibody, IgG1, V domains shown, IgG1; variable domains only; VL is variant III) VH: EVQLVESGGGLVQPGGSLRLSCAASGFTFSPFAMHWVRQAPGKGLEWVAKISPGGSWTYYSDTVTDRFTFSLDTSKSTAYLQMNSLRAEDTAVYYCARQHWGYYALDIWGQGTLVTVSS VL: DIQLTQSPSSLSASVGDRVTITCSASISVSYLYWYQQKPGKAPKLLIYDDSSLASGVPSRFSGSGSGTDFTLTISSLQPEDFATYYCQQWSGYPYTFGQGTKVEIK | 0.83 nM | 0.00129 s⁻¹ | 1.55e+06 M⁻¹ s⁻¹
Anti-IL-6 antibody, heavy chain S35H, G66D, L100I / light chain WT (antibody, IgG1, V domains shown, IgG1; variable domains only) VH: EVQLVESGGGLVQPGGSLRLSCAASGFTFSPFAMHWVRQAPGKGLEWVAKISPGGSWTYYSDTVTDRFTFSLDTSKSTAYLQMNSLRAEDTAVYYCARQIWGYYALDIWGQGTLVTVSS VL: DIQLTQSPSSLSASVGDRVTITCSASISVSYMYWYQQKPGKAPKLLIYDMSNLASGVPSRFSGSGSGTDFTLTISSLQPEDFATYYCMQWSGYPYTFGQGTKVEIK | 0.692 nM | 0.000644 s⁻¹ | 931000 M⁻¹ s⁻¹
Anti-IL-6 antibody, heavy chain S35H, G66D, L100H / light chain WT (antibody, IgG1, V domains shown, IgG1; variable domains only) VH: EVQLVESGGGLVQPGGSLRLSCAASGFTFSPFAMHWVRQAPGKGLEWVAKISPGGSWTYYSDTVTDRFTFSLDTSKSTAYLQMNSLRAEDTAVYYCARQHWGYYALDIWGQGTLVTVSS VL: DIQLTQSPSSLSASVGDRVTITCSASISVSYMYWYQQKPGKAPKLLIYDMSNLASGVPSRFSGSGSGTDFTLTISSLQPEDFATYYCMQWSGYPYTFGQGTKVEIK | 0.688 nM | 0.000498 s⁻¹ | 723000 M⁻¹ s⁻¹
Anti-IL-6 antibody, heavy chain S35H, G66D, L100E / light chain M32L, M50D, N52S, M88Q (antibody, IgG1, V domains shown, IgG1; variable domains only; VL is variant III) VH: EVQLVESGGGLVQPGGSLRLSCAASGFTFSPFAMHWVRQAPGKGLEWVAKISPGGSWTYYSDTVTDRFTFSLDTSKSTAYLQMNSLRAEDTAVYYCARQEWGYYALDIWGQGTLVTVSS VL: DIQLTQSPSSLSASVGDRVTITCSASISVSYLYWYQQKPGKAPKLLIYDDSSLASGVPSRFSGSGSGTDFTLTISSLQPEDFATYYCQQWSGYPYTFGQGTKVEIK | 0.704 nM | 0.00145 s⁻¹ | 2.05e+06 M⁻¹ s⁻¹

Now those with a lower Kd, led by results:

Kd | koff | kon | Binder
0.184 nM | 0.000833 s⁻¹ | 4.52e+06 M⁻¹ s⁻¹ | Anti-IL-6 antibody, heavy chain S35H, G66D, L100A / light chain WT (antibody, IgG1, V domains shown, IgG1; variable domains only) VH: EVQLVESGGGLVQPGGSLRLSCAASGFTFSPFAMHWVRQAPGKGLEWVAKISPGGSWTYYSDTVTDRFTFSLDTSKSTAYLQMNSLRAEDTAVYYCARQAWGYYALDIWGQGTLVTVSS VL: DIQLTQSPSSLSASVGDRVTITCSASISVSYMYWYQQKPGKAPKLLIYDMSNLASGVPSRFSGSGSGTDFTLTISSLQPEDFATYYCMQWSGYPYTFGQGTKVEIK
0.372 nM | 0.000712 s⁻¹ | 1.91e+06 M⁻¹ s⁻¹ | Anti-IL-6 antibody, heavy chain S35H, G66D, L100I / light chain M32L, M50D, N52S, M88Q (antibody, IgG1, V domains shown, IgG1; variable domains only; VL is variant III) VH: EVQLVESGGGLVQPGGSLRLSCAASGFTFSPFAMHWVRQAPGKGLEWVAKISPGGSWTYYSDTVTDRFTFSLDTSKSTAYLQMNSLRAEDTAVYYCARQIWGYYALDIWGQGTLVTVSS VL: DIQLTQSPSSLSASVGDRVTITCSASISVSYLYWYQQKPGKAPKLLIYDDSSLASGVPSRFSGSGSGTDFTLTISSLQPEDFATYYCQQWSGYPYTFGQGTKVEIK
0.196 nM | 0.000644 s⁻¹ | 3.28e+06 M⁻¹ s⁻¹ | Anti-IL-6 antibody, heavy chain S35H, G66D, L100S / light chain WT (antibody, IgG1, V domains shown, IgG1; variable domains only) VH: EVQLVESGGGLVQPGGSLRLSCAASGFTFSPFAMHWVRQAPGKGLEWVAKISPGGSWTYYSDTVTDRFTFSLDTSKSTAYLQMNSLRAEDTAVYYCARQSWGYYALDIWGQGTLVTVSS VL: DIQLTQSPSSLSASVGDRVTITCSASISVSYMYWYQQKPGKAPKLLIYDMSNLASGVPSRFSGSGSGTDFTLTISSLQPEDFATYYCMQWSGYPYTFGQGTKVEIK
0.422 nM | 0.000614 s⁻¹ | 1.46e+06 M⁻¹ s⁻¹ | Anti-IL-6 antibody, heavy chain S35H, G66D, L100F / light chain M32L, M50D, N52S, M88Q (antibody, IgG1, V domains shown, IgG1; variable domains only; VL is variant III) VH: EVQLVESGGGLVQPGGSLRLSCAASGFTFSPFAMHWVRQAPGKGLEWVAKISPGGSWTYYSDTVTDRFTFSLDTSKSTAYLQMNSLRAEDTAVYYCARQFWGYYALDIWGQGTLVTVSS VL: DIQLTQSPSSLSASVGDRVTITCSASISVSYLYWYQQKPGKAPKLLIYDDSSLASGVPSRFSGSGSGTDFTLTISSLQPEDFATYYCQQWSGYPYTFGQGTKVEIK
0.244 nM | 0.000612 s⁻¹ | 2.51e+06 M⁻¹ s⁻¹ | Anti-IL-6 antibody, heavy chain S35H, G66D, L100F / light chain WT (antibody, IgG1, V domains shown, IgG1; variable domains only) VH: EVQLVESGGGLVQPGGSLRLSCAASGFTFSPFAMHWVRQAPGKGLEWVAKISPGGSWTYYSDTVTDRFTFSLDTSKSTAYLQMNSLRAEDTAVYYCARQFWGYYALDIWGQGTLVTVSS VL: DIQLTQSPSSLSASVGDRVTITCSASISVSYMYWYQQKPGKAPKLLIYDMSNLASGVPSRFSGSGSGTDFTLTISSLQPEDFATYYCMQWSGYPYTFGQGTKVEIK
0.3 nM | 0.00096 s⁻¹ | 3.2e+06 M⁻¹ s⁻¹ | Anti-IL-6 antibody, heavy chain S35H, G66D, L100G / light chain WT (antibody, IgG1, V domains shown, IgG1; variable domains only) VH: EVQLVESGGGLVQPGGSLRLSCAASGFTFSPFAMHWVRQAPGKGLEWVAKISPGGSWTYYSDTVTDRFTFSLDTSKSTAYLQMNSLRAEDTAVYYCARQGWGYYALDIWGQGTLVTVSS VL: DIQLTQSPSSLSASVGDRVTITCSASISVSYMYWYQQKPGKAPKLLIYDMSNLASGVPSRFSGSGSGTDFTLTISSLQPEDFATYYCMQWSGYPYTFGQGTKVEIK
0.217 nM | 0.000724 s⁻¹ | 3.34e+06 M⁻¹ s⁻¹ | Anti-IL-6 antibody, heavy chain S35H, G66D, L100T / light chain WT (antibody, IgG1, V domains shown, IgG1; variable domains only) VH: EVQLVESGGGLVQPGGSLRLSCAASGFTFSPFAMHWVRQAPGKGLEWVAKISPGGSWTYYSDTVTDRFTFSLDTSKSTAYLQMNSLRAEDTAVYYCARQTWGYYALDIWGQGTLVTVSS VL: DIQLTQSPSSLSASVGDRVTITCSASISVSYMYWYQQKPGKAPKLLIYDMSNLASGVPSRFSGSGSGTDFTLTISSLQPEDFATYYCMQWSGYPYTFGQGTKVEIK
0.447 nM | 0.000799 s⁻¹ | 1.79e+06 M⁻¹ s⁻¹ | Anti-IL-6 antibody, heavy chain S35H, G66D, L100D / light chain WT (antibody, IgG1, V domains shown, IgG1; variable domains only) VH: EVQLVESGGGLVQPGGSLRLSCAASGFTFSPFAMHWVRQAPGKGLEWVAKISPGGSWTYYSDTVTDRFTFSLDTSKSTAYLQMNSLRAEDTAVYYCARQDWGYYALDIWGQGTLVTVSS VL: DIQLTQSPSSLSASVGDRVTITCSASISVSYMYWYQQKPGKAPKLLIYDMSNLASGVPSRFSGSGSGTDFTLTISSLQPEDFATYYCMQWSGYPYTFGQGTKVEIK
0.35 nM | 0.00202 s⁻¹ | 5.77e+06 M⁻¹ s⁻¹ | Anti-IL-6 antibody, heavy chain S35H, G66D, L100D / light chain M32L, M50D, N52S, M88Q (antibody, IgG1, V domains shown, IgG1; variable domains only; VL is variant III) VH: EVQLVESGGGLVQPGGSLRLSCAASGFTFSPFAMHWVRQAPGKGLEWVAKISPGGSWTYYSDTVTDRFTFSLDTSKSTAYLQMNSLRAEDTAVYYCARQDWGYYALDIWGQGTLVTVSS VL: DIQLTQSPSSLSASVGDRVTITCSASISVSYLYWYQQKPGKAPKLLIYDDSSLASGVPSRFSGSGSGTDFTLTISSLQPEDFATYYCQQWSGYPYTFGQGTKVEIK
0.18 nM | 0.00106 s⁻¹ | 5.88e+06 M⁻¹ s⁻¹ | Anti-IL-6 antibody, heavy chain S35H, G66D, L100K / light chain WT (antibody, IgG1, V domains shown, IgG1; variable domains only) VH: EVQLVESGGGLVQPGGSLRLSCAASGFTFSPFAMHWVRQAPGKGLEWVAKISPGGSWTYYSDTVTDRFTFSLDTSKSTAYLQMNSLRAEDTAVYYCARQKWGYYALDIWGQGTLVTVSS VL: DIQLTQSPSSLSASVGDRVTITCSASISVSYMYWYQQKPGKAPKLLIYDMSNLASGVPSRFSGSGSGTDFTLTISSLQPEDFATYYCMQWSGYPYTFGQGTKVEIK
0.18 nM | 0.00064 s⁻¹ | 3.56e+06 M⁻¹ s⁻¹ | Anti-IL-6 antibody, heavy chain S35H, G66D, L100Q / light chain WT (antibody, IgG1, V domains shown, IgG1; variable domains only) VH: EVQLVESGGGLVQPGGSLRLSCAASGFTFSPFAMHWVRQAPGKGLEWVAKISPGGSWTYYSDTVTDRFTFSLDTSKSTAYLQMNSLRAEDTAVYYCARQQWGYYALDIWGQGTLVTVSS VL: DIQLTQSPSSLSASVGDRVTITCSASISVSYMYWYQQKPGKAPKLLIYDMSNLASGVPSRFSGSGSGTDFTLTISSLQPEDFATYYCMQWSGYPYTFGQGTKVEIK
